From the supplement of paper PMC12042874 come the findings set out here.

This data set is described as follows: amyloid nucleation score (Sup35N fusion, yeast selection) (log enrichment); library NNK2; higher = more nucleation; inactive = no reads after selection. The method in brief: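 The nucleation score equals the log enrichment of output over input reads from DiMSum, centred on the mode score of non-aggregating sequences. It was computed only for sequences with 100 or more input reads. The reads came from Illumina sequencing of plasmid inserts from psi-negative yeast expressing Sup35N fused to peptides of 20 random codons, induced with 100 μM copper sulfate for 24 hours and grown 7 days at 30°C without adenine and uracil.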

± gives the uncertainty stated by the source.

Turning to SCKNMGHVWFIVDVHHNRRL, the amyloid nucleation score result was “inactive”.
To RWFDRV belongs 0.664 ± 0.31; to ALLYYTAVVDKNYTSDLSHD, -0.899 ± 0.37; to MKMEY, 0.31 ± 0.42.
Under KNSVVL stands 0.275 ± 0.64; under SIFMYMYKSFFMGNYINGGM, 1.03 ± 0.27.
To NWPGCVHNTVISDLGRVHCM belongs -0.853 ± 0.56.
As to SNNNAIVNRSRIIRHFMNYC, the amyloid nucleation score was -0.604 ± 0.56.
FGDLGLIVRDSKSLLGSIKQ displayed an amyloid nucleation score of 0.053 ± 0.79.
To QWTLVL belongs -0.599 ± 0.55; to RNVCGCPGCYFNVDAILLWY, -1.2 ± 1.1.
Under VLFCT stands -1.29 ± 0.61.
Under RRHEPVPSSK stands 0.398 ± 0.66; under NYWGVARKFEFSDECLFLDG, 0.596 ± 0.54.
With GCRTFDPSNGAAIDGAMSFV, the amyloid nucleation score entry was “inactive”.
Under RYLVLVLLGHINCARYYTLN stands -0.114 ± 1.1.
To YRLPRLRMLTLFLCFTNVGK belongs 1.37 ± 0.2; to MRLHSLGRCGQWSCDVGRER, 0.918 ± 0.35.
Substance AFCAGVQAPEFPNLA registered an amyloid nucleation score of 0.437 ± 0.65.
CSHITYQMCFILLNTAYFSH: the amyloid nucleation score is -0.159 ± 1.1.
Under RTVEWRDNYLLGRILLFNPV stands -0.187 ± 0.55.
To FCTKSTGNMCFTIMKLRG belongs 0.097 ± 0.79; to RVQAGFIRAGCNIEARKFSG, -0.48 ± 0.28.
To GCDDDDAA belongs 1.31 ± 0.32; to FIEVTSRNT, -0.994 ± 0.42.
ERGQGKHRNEGVHYNRWCGC: the amyloid nucleation score was determined as 2.15 ± 0.17.
Under IMSSISRSNCVSLVV stands “inactive”; under DLVYDCKGFCIRLLLG, -1.63 ± 1; under VNMFSFHYFHSVMRFLFYRW, -0.751 ± 0.41.
For YSGVSTTSFISDKPYRSRRR, the amyloid nucleation score is -1.95 ± 1.
To STPLILVRCNSYL belongs -0.456 ± 0.28.
To GKGSRFRYSIGG belongs 0.943 ± 0.47; to WSFVGSTLSRDGSHNQDVHW, 3.58 ± 0.098.
To LTMVWNKSFGEIHRLWVGNS belongs -1.58 ± 0.62; to SLKITSYSVCVCCLCMNCNT, 7.6 ± 0.052.
CETLSGMRGLCRKKTDVPDI: the amyloid nucleation score is -0.036 ± 0.63.
To ISVQATGASESETIPIQTGY belongs 2.13 ± 0.11.
To RVLFHSSFGRGLVCEISVHV belongs -1.01 ± 0.62; to YSGDNVNVVKQRPSCFLISR, -0.24 ± 0.74.
SLLGVENNCVISFTTIFVVS registered an amyloid nucleation score of 5.11 ± 0.088.
For RSSASRNQFKESCFRAHQFP, the amyloid nucleation score was -0.339 ± 0.27.
Under FSLSCM stands “inactive”.
Under FGIERCRLYGNFYCVAVLGS stands “inactive”.
Under IMIMTGWS stands -0.984 ± 0.44.
Substance VLPRYN gave an amyloid nucleation score of 0.471 ± 0.62.
To VLGLSR belongs 0.584 ± 0.51; to ICEVRIFKLNMVVCSLYYMV, -1.12 ± 0.76; to GSLTKSLSKTTQLR, “inactive”.
Under PSVRTYTV stands 4.67 ± 0.054; under VDVVFTSSSTSLCSLSWSGV, 4.79 ± 0.099; under STICFG, -0.541 ± 1.
Take RSGVESHRRKVPLVPMGVTV: the amyloid nucleation score turned out to be 1.16 ± 0.36.
As to LYYAQSANRRLSGAWRFLF, the amyloid nucleation score was -0.281 ± 0.79.
Substance SLKSYVSVQFELASSVWILE returned an amyloid nucleation score of 1.02 ± 0.24.
Under KLLKYLSNSFTHRVLCNHDD stands “inactive”; under TSVGYMMLSNW, 4.88 ± 0.095.
ALECGRTMEINLTGR: the amyloid nucleation score was 0.942 ± 0.37.
In turn, RRYDAVR had an amyloid nucleation score of 1.3 ± 0.22.
Under EQRILRLSRSIESFSMNRNQ stands -0.593 ± 0.64; under LSMTKLGVIGTSCNFLLW, “inactive”; under DYNKLVAWALCLCFFRFRRN, 0.762 ± 0.81.
GFSPSMECHVMEAHLDMRVR had an amyloid nucleation score of 0.227 ± 0.21.
In the case of SCNDANILSMSVVWVLRTGE, the amyloid nucleation score is 3.12 ± 0.13.
To VIFCVLLVNNLDWRFWPSSK belongs 4.928 ± 0.037; to TGWCGL, 5.54 ± 0.066.
To TTGHQLNDCYLKGCFSEWIL belongs -0.073 ± 1.
In the case of AINGHDRGLSKLGGRAGESD, the amyloid nucleation score came out at 0.589 ± 0.42.
Under ISDHTTNKDQRFSYS stands -0.455 ± 1.1.
To TRLMCMFERYQACFTDLSDI belongs -0.698 ± 0.54.
With SLVTSIVQG, the amyloid nucleation score is -0.434 ± 0.64.
On to VSLWLYISMQCTRLSRRDQG, for which the amyloid nucleation score worked out at 0.22 ± 0.65.
For EYSLCRMG, the amyloid nucleation score was -0.155 ± 0.28.
To WLFTRRTLVWQSTHPNVMTT belongs “inactive”; to TFNACNK, 0.349 ± 0.18.
NQFEGLKMRSTKLGAGGS: the amyloid nucleation score was -0.293 ± 0.64.
Under GGCGLH stands 0.261 ± 0.4; under TYKAAICLGCS, 6.548 ± 0.033; under WLWLND, -0.661 ± 1.1.
To CQMYWYFWPGVTRFAR belongs 8.633 ± 0.03; to DPRLSSLSCMGRWHHNYHAS, 0.772 ± 0.5.
For the substance TFLSGLCIAACSIMGFNQSS, the amyloid nucleation score is -1.6 ± 0.78.
To RSSRYLLPFNGGTPFYDSR belongs -0.284 ± 1.1; to YSARRSGNFPVVRLMMNDLT, -0.153 ± 0.65; to TYCNRLRNRLMFFLYSPTTS, -0.587 ± 0.79.
Under ASCMS stands -0.056 ± 0.32; under STEQLLQVHNTHGRPWSRLS, 1.32 ± 0.32; under TLNNCRPFCLLELANLINRD, 3.4 ± 0.058.
VLPRGD showed an amyloid nucleation score of 0.125 ± 0.4.
Under SPTRFFQLFQADGNSNRGDV stands -0.519 ± 1.
To LAWGNHRVLRWSAPHNIRSR belongs 0.93 ± 0.33; to ATVYMLHALVSDGCQLGD, 0.399 ± 0.31; to ILWKMTFKAPIAKEFPAKWL, 0.065 ± 0.56.
Under DHFYWSNLGG stands “inactive”; under ERTVKETFSTGNSYEGTGRR, -0.468 ± 0.53.
For the substance FSTWSTLDSVACW, the amyloid nucleation score result is “inactive”.
Under CVNVTLASFQVLNNPLHRSF stands 4.896 ± 0.041; under TTMCMGLLTNWWAGRCL, 2.76 ± 0.1.
Under YGRLRLVA stands -0.637 ± 0.54.
On to KNNVCSHIPNLGSYYLF, for which the amyloid nucleation score is 0.736 ± 0.8.
To VNLSCPVMNRTSMMCVVYLH belongs 7.799 ± 0.052; to TLPCFRVFYVTFQYSNHLLS, 8.55 ± 0.042; to TCLYP, -0.707 ± 0.55.
On to ITSLRSLRYFHVEFVSRLWL, for which the amyloid nucleation score is 0.554 ± 0.81.
To SVYVVGFLCQGYSSLRSLVA belongs 4.42 ± 0.089; to QSHTYRL, 1.55 ± 0.25.
To RHGGQAAGRVEHVTSGCQRV belongs 1.54 ± 0.47; to EVRWASAPRNCCR, 0.79 ± 0.26.
VMWRTRGTACSLIVRWVGMG: the amyloid nucleation score was 0.822 ± 0.25.
Under FYSVNCFFFCHSIVILEKLF stands 3.33 ± 0.15.
Consider GDCQE, for which the amyloid nucleation score worked out at 1.1 ± 0.23.
On to LWHFVLWYMWLLIGDVVGVC, for which the amyloid nucleation score is -0.459 ± 1.1.
As for GPEWSSLGSKVRLHWINSM, the amyloid nucleation score stood at 0.626 ± 0.8.
To PGSRRL belongs 0.011 ± 0.41.
Under FFQEGYNRVPS stands -0.336 ± 0.62; under MACFECFTGISACNLNMRG, 8.574 ± 0.026; under CIPRRGY, 0.713 ± 0.74.
RRGDKRMVTDFTLLTTGGGR came in with an amyloid nucleation score of 0.543 ± 0.33.
To TNWQGQRIRYAKDLGGPCGL belongs 0.506 ± 0.35.
To HESRGCSHKTNSMCGHLILL belongs -0.309 ± 0.45; to YIHVYVLMLGLNRQF, 4.74 ± 0.071.
Under SIRSKGDILSCSRTTFC stands 5.32 ± 0.071; under MVPCWRFQSMC, 0.961 ± 0.81; under PYTSSLLLQDRVLARGAYCR, 1.25 ± 0.36.
Turning to HLENGINIWDKLY, the amyloid nucleation score is -0.363 ± 1.1.
PSLFTVFNVRLFQE: the amyloid nucleation score is 4.12 ± 0.072.
To DTVLAI belongs 0.035 ± 0.74; to RCQLRALRCPFMSTVLRCSY, 0.803 ± 0.28; to VSFRHQCWNACNSDSVGEEI, 0.892 ± 0.48.
Under IFMRNRV stands -0.524 ± 0.64.
In turn, YLGWVVCFRHCLIGH returned an amyloid nucleation score of 0.145 ± 0.56.
To SLLLKVMSR belongs -0.627 ± 0.79.
In turn, PVSALAVFRCLMYSCFCGDL registered an amyloid nucleation score of 6.172 ± 0.035.
To EHSWIKLCIEWMSKPIGARR belongs 0.927 ± 0.32; to TRWSANYPRCWPTMRRCLSL, 0.858 ± 0.51; to TIATPHCVYDSCGCSVVSSV, 0.176 ± 0.56.
Consider RNFCGTRARSISYWAESERW, for which the amyloid nucleation score is -0.089 ± 1.1.
Under GSLKEAAGEYMVCRVRLSVG stands 0.26 ± 0.46; under MIVLKRSPSLCSIS, -0.007 ± 0.34.
To FFTVFLQDIMVWRDQWIYPQ belongs “inactive”; to YLTLEMLAVDE, -0.52 ± 1.1.
To RLALWVKSSYVFIQESEELH belongs 3.2 ± 0.1.
In turn, DRLVSLAYLMWFGKMGWDKG showed an amyloid nucleation score of 0.05 ± 0.51.
